# Target: HA-2B4 (A. trivirgatus 2B4 ectodomain fused to human 2B4 from residue 219 to the stop codon), on COS-7 cells (Aotus trivirgatus | human) (UniProt Q9BZW8)
# Assay: flow cytometry on cells; cells incubated with the Fc fusion protein (8 μg/mL or a range of concentrations), then anti-human IgG (Fc specific) mAb and anti-mouse IgG-PE; 20% rabbit serum and 1% fetal bovine serum in PBS
substance,measurement,value
A43-Fc fusion protein,percent of 2B4-transfected COS-7 cells binding A43-Fc (highest dose),80.9%

# From article PMC6448830
